Test results published in patent US20140221287A1 (AstraZeneca / MedImmune, published 2014).
No end group written: not given here.

What follows are binders tested against T1, human amylin receptor 3 (AMY3) (human, UniProt P30988 25-474; O60896 24-148) (assay: cell-based or functional assay).
T1 sequence (looked up) 1: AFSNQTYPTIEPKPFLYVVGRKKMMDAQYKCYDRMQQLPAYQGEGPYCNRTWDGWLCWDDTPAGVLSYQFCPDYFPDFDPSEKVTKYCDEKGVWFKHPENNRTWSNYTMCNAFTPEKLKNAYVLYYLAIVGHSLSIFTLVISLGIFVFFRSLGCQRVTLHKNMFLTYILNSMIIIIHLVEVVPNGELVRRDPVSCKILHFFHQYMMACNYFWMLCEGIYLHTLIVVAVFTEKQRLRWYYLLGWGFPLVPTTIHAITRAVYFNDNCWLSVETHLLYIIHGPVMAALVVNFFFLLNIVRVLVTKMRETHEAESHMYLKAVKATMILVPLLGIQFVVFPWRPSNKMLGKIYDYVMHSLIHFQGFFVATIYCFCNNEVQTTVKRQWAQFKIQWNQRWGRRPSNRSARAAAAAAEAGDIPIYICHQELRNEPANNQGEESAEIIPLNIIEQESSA
T1 sequence (looked up) 2: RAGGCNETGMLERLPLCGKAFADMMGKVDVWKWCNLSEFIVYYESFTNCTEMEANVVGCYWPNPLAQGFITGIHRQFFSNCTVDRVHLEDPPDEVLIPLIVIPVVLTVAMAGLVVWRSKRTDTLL
With CNTATCATQRLANFLVHSSNNFGPK(Y‑shaped‑mPEG40KD)LPPTNVGSNTY-NH2 (ends and bridges not checked, also called Compound 31) [Cmpd 31, [K^26(Y-shaped-mPEG40KD)]-Cmpd 12] the “EC50 (nM), cAMP accumulation (HTRF)” value was 2.56 nM.
With CNTATCATQRLANFLVHSSNNFGPK(mPEG40KD)LPPTNVGSNTY-NH2 (ends and bridges not checked, also called Compound 29) [Cmpd 29, [K^26(mPEG40KD)]-Cmpd 12] the “EC50 (nM), cAMP accumulation (HTRF)” value was 0.114 nM.
CNTATCATQRLANFLVHSSNNFGPILPPTK(mPEG40KD)VGSNTY-NH2 (ends and bridges not checked, also called Compound 30) [Cmpd 30, [K^31(mPEG40KD)]-Cmpd 13] was tested, and the “EC50 (nM), cAMP accumulation (HTRF)” value was 0.145 nM.
In the case of CNTATCATQRLANFLVHSSK(mPEG40KD)NFGPILPPTNVGSNTY-NH2 (ends and bridges not checked, also called Compound 28) [Cmpd 28, [K^21(mPEG40KD)]-Cmpd 11], the “EC50 (nM), cAMP accumulation (HTRF)” value is reported as 2.58 nM.
With CNTATCATQRLANFLVHSSNNFGPILPPTNVGK(mPEG40KD)NTY-NH2 (ends and bridges not checked, also called Compound 41) [Cmpd 41, [K^34(mPEG40KD)]-Cmpd 38] the “EC50 (nM), cAMP accumulation (HTRF)” value was 0.034 nM.
In the case of CNTATCATQRLANFLVK(mPEG40KD)SSNNFGPILPPTNVGSNTY-NH2 (ends and bridges not checked, also called Compound 40) [Cmpd 40, [K^18(mPEG40KD)]-Cmpd 37], the “EC50 (nM), cAMP accumulation (HTRF)” value is reported as 0.85 nM.
With CNTATCATQRLANFLVHSSNNFGPILK(mPEG40KD)PTNVGSNTY-NH2 (ends and bridges not checked, also called Compound 35) [Cmpd 35, [K^28(mPEG40KD)]-Cmpd 17] the “EC50 (nM), cAMP accumulation (HTRF)” value was 0.295 nM.
With CNTATCATQRLANFLVHSSNNFK(mPEG40KD)PILPPTNVGSNTY-NH2 (ends and bridges not checked, also called Compound 32) [Cmpd 32, [K^24(mPEG40KD)]-Cmpd 14] the “EC50 (nM), cAMP accumulation (HTRF)” value was 0.598 nM.
CNTATCATQRLANFLVHSSNNFGPIK(mPEG40KD)PPTNVGSNTY-NH2 (ends and bridges not checked, also called Compound 34) [Cmpd 34, [K^27(mPEG40KD)]-Cmpd 16] was tested, and the “EC50 (nM), cAMP accumulation (HTRF)” value was 0.296 nM.
With CNTATCATQRLANFLVHSSNNFGPILPK(mPEG40KD)TNVGSNTY-NH2 (ends and bridges not checked, also called Compound 36) [Cmpd 36, [K^29(mPEG40KD)]-Cmpd 18] the “EC50 (nM), cAMP accumulation (HTRF)” value was 0.159 nM.
In the case of CNTATCATQRLANFLVHSSNNFGK(mPEG40KD)ILPPTNVGSNTY-NH2 (ends and bridges not checked, also called Compound 33) [Cmpd 33, [K^25(mPEG40KD)]-Cmpd 15], the “EC50 (nM), cAMP accumulation (HTRF)” value is reported as 0.126 nM.
In the case of CNTATCATQRLANFLVHSSNNFGPILPPTNVGSK(mPEG40KD)TY-NH2 (ends and bridges not checked, also called Compound 42) [Cmpd 42, [K^35(mPEG40KD)]-Cmpd 39], the “EC50 (nM), cAMP accumulation (HTRF)” value is reported as 0.122 nM.

These binders were tested against T1, human amylin receptor 3 (AMY3) (assay: displacement of 125I-rat amylin from crude membranes of HEK293 cells expressing human AMY3 (hCalcR + RAMP3)).
Procedure: The crude membranes were incubated with 20 pM ¹²⁵I. (Perkin Elmer Cat#NEX4480) (2000 Ci/mmol) and increasing concentration of test peptide. […] The Unifilter® plates were washed several times using ice cold PBS using a MicroMate 96 Cell Harvester (Perkin Elmer).
The potency (IC₅₀) of test peptide was determined by the analysis of a concentration-response curve using non-linear regression analysis fitted to a 4-parameter curve. Binding affinities were calculated using GraphPad Prism® software (GraphPad Software, Inc., San Diego, Calif.).
CNTATCATQRLANFLVHSSNNFGPK(Y‑shaped‑mPEG40KD)LPPTNVGSNTY-NH2 (ends and bridges not checked, also called Compound 31) [Cmpd 31, [K^26(Y-shaped-mPEG40KD)]-Cmpd 12] was tested, and the IC50 was 1130 nM.
CNTATCATQRLANFLVHSSNNFGPK(mPEG40KD)LPPTNVGSNTY-NH2 (ends and bridges not checked, also called Compound 29) [Cmpd 29, [K^26(mPEG40KD)]-Cmpd 12] showed an IC50 of 60 nM.
Binder CNTATCATQRLANFLVHSSNNFGPILPPTK(mPEG40KD)VGSNTY-NH2 (ends and bridges not checked, also called Compound 30) [Cmpd 30, [K^31(mPEG40KD)]-Cmpd 13] has an IC50 of 80 nM.
In the case of CNTATCATQRLANFLVHSSK(mPEG40KD)NFGPILPPTNVGSNTY-NH2 (ends and bridges not checked, also called Compound 28) [Cmpd 28, [K^21(mPEG40KD)]-Cmpd 11], the IC50 is reported as 388 nM.
CNTATCATQRLANFLVHSSNNFGPILPPTNVGK(mPEG40KD)NTY-NH2 (ends and bridges not checked, also called Compound 41) [Cmpd 41, [K^34(mPEG40KD)]-Cmpd 38] was tested, and the IC50 was 77 nM.
CNTATCATQRLANFLVK(mPEG40KD)SSNNFGPILPPTNVGSNTY-NH2 (ends and bridges not checked, also called Compound 40) [Cmpd 40, [K^18(mPEG40KD)]-Cmpd 37] showed an IC50 of 238 nM.
CNTATCATQRLANFLVHSSNNFGPILK(mPEG40KD)PTNVGSNTY-NH2 (ends and bridges not checked, also called Compound 35) [Cmpd 35, [K^28(mPEG40KD)]-Cmpd 17] showed an IC50 of 46 nM.
For CNTATCATQRLANFLVHSSNNFK(mPEG40KD)PILPPTNVGSNTY-NH2 (ends and bridges not checked, also called Compound 32) [Cmpd 32, [K^24(mPEG40KD)]-Cmpd 14], the IC50 was 111 nM.
CNTATCATQRLANFLVHSSNNFGPIK(mPEG40KD)PPTNVGSNTY-NH2 (ends and bridges not checked, also called Compound 34) [Cmpd 34, [K^27(mPEG40KD)]-Cmpd 16] was tested, and the IC50 was 87 nM.
Work on CNTATCATQRLANFLVHSSNNFGPILPK(mPEG40KD)TNVGSNTY-NH2 (ends and bridges not checked, also called Compound 36) [Cmpd 36, [K^29(mPEG40KD)]-Cmpd 18] yielded an IC50 of 47 nM.
CNTATCATQRLANFLVHSSNNFGK(mPEG40KD)ILPPTNVGSNTY-NH2 (ends and bridges not checked, also called Compound 33) [Cmpd 33, [K^25(mPEG40KD)]-Cmpd 15] was tested, and the IC50 was 48 nM.
Work on CNTATCATQRLANFLVHSSNNFGPILPPTNVGSK(mPEG40KD)TY-NH2 (ends and bridges not checked, also called Compound 42) [Cmpd 42, [K^35(mPEG40KD)]-Cmpd 39] yielded an IC50 of 143 nM.

Each binder was assayed against T2, amylin receptor in membranes prepared from the nucleus accumbens portion of the brain (rat) (rat) (assay: displacement of 125I-rat amylin from rat nucleus accumbens membranes).
T2 construct: whole, on cells; Native tissue membranes
Procedure: Plate was incubated for 1 hour at room temperature on a shaker. Plate was dried for 1.5 hours at 50° C., then overnight at room temperature.
Receptor binding activity can be expressed, for example in Table 3, as an IC₅₀ value, calculated from the raw data using an iterative curve-fitting program using a 4-parameter logistic equation (PRISM®, GraphPAD Software, La Jolla, Calif.), as known in the art.
CNTATCATQRLANFLVHSSNNFGPK(Y‑shaped‑mPEG40KD)LPPTNVGSNTY-NH2 (ends and bridges not checked, also called Compound 31) [Cmpd 31, [K^26(Y-shaped-mPEG40KD)]-Cmpd 12] gave an IC50 of 132 nM.
Binder KCNTATCATQRLANFLVRSSNNLGPVLPPTNVGSNTY-NH2 (ends and bridges not checked, also called Compound 1) [Cmpd 1] has an IC50 of 0.1 nM.
CNTATCATQRLANFLVHSSNNFGPK(mPEG40KD)LPPTNVGSNTY-NH2 (ends and bridges not checked, also called Compound 29) [Cmpd 29, [K^26(mPEG40KD)]-Cmpd 12] gave an IC50 of 39 nM.
CNTATCATQRLANFLVHSSNNFGPILPPTK(mPEG40KD)VGSNTY-NH2 (ends and bridges not checked, also called Compound 30) [Cmpd 30, [K^31(mPEG40KD)]-Cmpd 13] gave an IC50 of 61 nM.
For CNTATCATQRLANFLVHSSK(mPEG40KD)NFGPILPPTNVGSNTY-NH2 (ends and bridges not checked, also called Compound 28) [Cmpd 28, [K^21(mPEG40KD)]-Cmpd 11], the IC50 was 131 nM.
CNTATCATQRLANFLVHSSNNFGPILK(mPEG40KD)PTNVGSNTY-NH2 (ends and bridges not checked, also called Compound 35) [Cmpd 35, [K^28(mPEG40KD)]-Cmpd 17] showed an IC50 of 53 nM.
In the case of CNTATCATQRLANFLVHSSNNFK(mPEG40KD)PILPPTNVGSNTY-NH2 (ends and bridges not checked, also called Compound 32) [Cmpd 32, [K^24(mPEG40KD)]-Cmpd 14], the IC50 is reported as 79 nM.
For CNTATCATQRLANFLVHSSNNFGPIK(mPEG40KD)PPTNVGSNTY-NH2 (ends and bridges not checked, also called Compound 34) [Cmpd 34, [K^27(mPEG40KD)]-Cmpd 16], the IC50 was 51 nM.
CNTATCATQRLANFLVHSSNNFGPILPK(mPEG40KD)TNVGSNTY-NH2 (ends and bridges not checked, also called Compound 36) [Cmpd 36, [K^29(mPEG40KD)]-Cmpd 18] gave an IC50 of 27 nM.
CNTATCATQRLANFLVHSSNNFGK(mPEG40KD)ILPPTNVGSNTY-NH2 (ends and bridges not checked, also called Compound 33) [Cmpd 33, [K^25(mPEG40KD)]-Cmpd 15] was tested, and the IC50 was 31 nM.
